Test results from the supplement of paper PMC9876800.

Tested on: peptide library, one residue held at a place counted from the S/T acceptor
Test: relative phosphorylation of the sub-library (ratio to the mean residue at this position); human; higher = residue favoured
Conditions: A fixed; at +1
In short: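 Relative sub-library phosphorylation is the ratio of each sub-library's signal to the mean residue at that position. The signal came from phosphorimaging of spots on streptavidin membranes, quantified by densitometry, after purified recombinant kinases reacted with biotinylated degenerate peptide sub-libraries in 384-well plates. Reactions held 50 μM peptide and 50 μM ATP spiked with γ-32P-ATP for 90 min under kinase-specific conditions.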

Sequence of TTK, construct: Full length (P33981 whole entry, looked up): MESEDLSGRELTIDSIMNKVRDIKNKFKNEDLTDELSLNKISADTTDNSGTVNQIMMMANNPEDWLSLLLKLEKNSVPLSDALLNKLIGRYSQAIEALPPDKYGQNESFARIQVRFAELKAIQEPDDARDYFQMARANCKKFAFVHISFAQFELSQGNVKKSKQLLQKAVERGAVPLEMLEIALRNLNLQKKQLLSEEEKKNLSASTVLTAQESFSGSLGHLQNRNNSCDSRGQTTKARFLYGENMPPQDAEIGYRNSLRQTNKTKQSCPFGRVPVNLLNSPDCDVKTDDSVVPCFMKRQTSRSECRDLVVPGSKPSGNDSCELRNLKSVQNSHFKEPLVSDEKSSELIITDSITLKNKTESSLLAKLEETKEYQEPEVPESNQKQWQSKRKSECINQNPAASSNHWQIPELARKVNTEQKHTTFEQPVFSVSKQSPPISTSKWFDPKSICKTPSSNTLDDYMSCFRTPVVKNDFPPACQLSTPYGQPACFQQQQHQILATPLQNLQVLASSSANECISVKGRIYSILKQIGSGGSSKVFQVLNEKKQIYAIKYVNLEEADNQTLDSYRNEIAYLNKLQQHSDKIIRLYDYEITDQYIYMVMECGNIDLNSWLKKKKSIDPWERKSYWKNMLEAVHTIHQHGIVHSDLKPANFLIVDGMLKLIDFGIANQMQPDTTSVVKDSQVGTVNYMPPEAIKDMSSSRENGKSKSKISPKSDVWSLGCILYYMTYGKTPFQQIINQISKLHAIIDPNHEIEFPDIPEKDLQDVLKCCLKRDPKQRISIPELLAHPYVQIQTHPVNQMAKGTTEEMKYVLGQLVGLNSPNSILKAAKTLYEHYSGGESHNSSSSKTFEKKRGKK
Sequence of MELK, construct: aa1-340 (Q14680 1-340, looked up): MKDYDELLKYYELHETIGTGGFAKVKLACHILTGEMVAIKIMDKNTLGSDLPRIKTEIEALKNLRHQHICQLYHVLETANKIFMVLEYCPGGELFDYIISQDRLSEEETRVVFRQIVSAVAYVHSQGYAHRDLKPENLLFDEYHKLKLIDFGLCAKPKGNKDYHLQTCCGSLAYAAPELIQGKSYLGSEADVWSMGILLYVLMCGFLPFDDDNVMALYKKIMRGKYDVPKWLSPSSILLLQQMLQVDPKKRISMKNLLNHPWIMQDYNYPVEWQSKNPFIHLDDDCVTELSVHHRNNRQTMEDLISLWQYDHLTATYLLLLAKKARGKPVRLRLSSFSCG
Sequence of RPS6KA6, construct: Full length (Q9UK32 whole entry, looked up): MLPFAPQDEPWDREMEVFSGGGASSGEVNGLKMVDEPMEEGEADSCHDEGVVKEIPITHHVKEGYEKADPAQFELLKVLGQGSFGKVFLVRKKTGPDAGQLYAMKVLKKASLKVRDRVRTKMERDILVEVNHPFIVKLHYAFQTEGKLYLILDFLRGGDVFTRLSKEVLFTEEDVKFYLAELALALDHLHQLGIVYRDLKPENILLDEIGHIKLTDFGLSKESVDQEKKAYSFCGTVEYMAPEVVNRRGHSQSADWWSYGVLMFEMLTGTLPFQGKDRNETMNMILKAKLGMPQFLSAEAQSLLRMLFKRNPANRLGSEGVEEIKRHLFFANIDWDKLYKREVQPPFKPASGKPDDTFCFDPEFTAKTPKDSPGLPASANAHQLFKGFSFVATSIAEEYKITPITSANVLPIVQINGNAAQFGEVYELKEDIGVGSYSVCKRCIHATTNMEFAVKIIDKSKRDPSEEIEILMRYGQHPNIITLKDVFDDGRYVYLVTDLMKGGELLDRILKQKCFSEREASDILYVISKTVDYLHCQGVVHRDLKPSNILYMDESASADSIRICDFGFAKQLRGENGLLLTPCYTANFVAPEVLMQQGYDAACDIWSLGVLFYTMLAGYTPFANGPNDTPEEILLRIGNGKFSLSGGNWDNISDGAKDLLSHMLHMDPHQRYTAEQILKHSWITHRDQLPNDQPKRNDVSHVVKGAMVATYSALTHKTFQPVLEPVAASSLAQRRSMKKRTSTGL
Sequence of PAK3, construct: Full length (O75914 whole entry, looked up): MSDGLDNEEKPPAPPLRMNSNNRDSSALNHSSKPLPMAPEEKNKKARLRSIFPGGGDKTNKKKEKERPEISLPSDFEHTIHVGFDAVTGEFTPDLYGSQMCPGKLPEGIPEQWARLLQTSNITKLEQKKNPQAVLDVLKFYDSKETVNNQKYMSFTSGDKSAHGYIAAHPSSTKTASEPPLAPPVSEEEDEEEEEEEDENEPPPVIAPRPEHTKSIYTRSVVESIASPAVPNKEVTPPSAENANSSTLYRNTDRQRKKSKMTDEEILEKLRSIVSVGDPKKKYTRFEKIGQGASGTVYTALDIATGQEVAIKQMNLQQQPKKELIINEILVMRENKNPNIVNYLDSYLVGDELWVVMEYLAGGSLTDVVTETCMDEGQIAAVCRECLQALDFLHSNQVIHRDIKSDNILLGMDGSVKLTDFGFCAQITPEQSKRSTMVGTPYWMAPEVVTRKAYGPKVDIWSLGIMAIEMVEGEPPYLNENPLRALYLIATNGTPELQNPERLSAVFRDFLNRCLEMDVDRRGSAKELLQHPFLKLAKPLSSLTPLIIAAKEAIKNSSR
Sequence of GRK5, construct: Full length (P34947 whole entry, looked up): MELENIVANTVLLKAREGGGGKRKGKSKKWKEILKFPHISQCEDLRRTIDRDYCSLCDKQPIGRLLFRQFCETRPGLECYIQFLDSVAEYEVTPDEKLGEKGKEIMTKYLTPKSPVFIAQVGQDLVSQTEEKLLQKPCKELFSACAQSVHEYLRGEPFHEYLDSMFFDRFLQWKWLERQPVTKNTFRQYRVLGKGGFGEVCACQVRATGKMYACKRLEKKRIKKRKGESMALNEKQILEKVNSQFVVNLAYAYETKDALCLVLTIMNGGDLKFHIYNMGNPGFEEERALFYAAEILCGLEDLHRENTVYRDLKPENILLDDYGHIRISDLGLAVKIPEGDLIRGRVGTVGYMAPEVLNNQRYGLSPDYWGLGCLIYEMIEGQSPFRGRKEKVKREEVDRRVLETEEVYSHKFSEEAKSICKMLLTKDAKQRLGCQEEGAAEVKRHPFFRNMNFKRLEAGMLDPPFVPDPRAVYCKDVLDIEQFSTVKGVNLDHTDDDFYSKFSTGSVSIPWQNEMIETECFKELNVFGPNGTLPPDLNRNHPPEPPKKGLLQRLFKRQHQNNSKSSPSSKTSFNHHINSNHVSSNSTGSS
Sequence of PRPF4B, construct: aa519-end (Q13523 519-1007, looked up): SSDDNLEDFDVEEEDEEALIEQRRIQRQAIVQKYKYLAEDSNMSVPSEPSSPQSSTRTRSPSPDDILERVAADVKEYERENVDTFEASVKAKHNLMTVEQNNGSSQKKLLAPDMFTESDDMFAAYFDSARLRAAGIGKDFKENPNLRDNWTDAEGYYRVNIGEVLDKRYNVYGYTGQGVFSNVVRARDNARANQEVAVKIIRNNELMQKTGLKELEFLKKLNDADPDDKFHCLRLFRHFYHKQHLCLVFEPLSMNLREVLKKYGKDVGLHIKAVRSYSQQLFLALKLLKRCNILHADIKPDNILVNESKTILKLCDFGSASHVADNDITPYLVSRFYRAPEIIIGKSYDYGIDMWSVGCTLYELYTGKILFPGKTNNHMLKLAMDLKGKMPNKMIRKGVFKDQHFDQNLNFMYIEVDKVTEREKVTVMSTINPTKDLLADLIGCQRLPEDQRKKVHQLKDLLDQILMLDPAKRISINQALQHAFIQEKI
Sequence of CLK3, construct: Full length (P49761 whole entry, looked up): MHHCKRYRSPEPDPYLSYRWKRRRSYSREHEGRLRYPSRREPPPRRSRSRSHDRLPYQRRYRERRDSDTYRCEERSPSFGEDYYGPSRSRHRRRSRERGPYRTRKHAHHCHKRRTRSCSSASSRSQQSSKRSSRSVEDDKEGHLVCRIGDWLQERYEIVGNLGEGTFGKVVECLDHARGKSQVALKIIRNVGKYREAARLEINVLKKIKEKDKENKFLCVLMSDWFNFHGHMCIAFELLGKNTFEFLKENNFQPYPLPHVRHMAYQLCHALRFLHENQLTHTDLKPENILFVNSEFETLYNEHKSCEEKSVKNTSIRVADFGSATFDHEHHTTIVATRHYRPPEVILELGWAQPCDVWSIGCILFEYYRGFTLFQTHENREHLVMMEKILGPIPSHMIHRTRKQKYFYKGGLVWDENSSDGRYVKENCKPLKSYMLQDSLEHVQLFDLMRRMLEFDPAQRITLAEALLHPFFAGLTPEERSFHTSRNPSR
Sequence of MASTL, construct: Full length (Q96GX5 whole entry, looked up): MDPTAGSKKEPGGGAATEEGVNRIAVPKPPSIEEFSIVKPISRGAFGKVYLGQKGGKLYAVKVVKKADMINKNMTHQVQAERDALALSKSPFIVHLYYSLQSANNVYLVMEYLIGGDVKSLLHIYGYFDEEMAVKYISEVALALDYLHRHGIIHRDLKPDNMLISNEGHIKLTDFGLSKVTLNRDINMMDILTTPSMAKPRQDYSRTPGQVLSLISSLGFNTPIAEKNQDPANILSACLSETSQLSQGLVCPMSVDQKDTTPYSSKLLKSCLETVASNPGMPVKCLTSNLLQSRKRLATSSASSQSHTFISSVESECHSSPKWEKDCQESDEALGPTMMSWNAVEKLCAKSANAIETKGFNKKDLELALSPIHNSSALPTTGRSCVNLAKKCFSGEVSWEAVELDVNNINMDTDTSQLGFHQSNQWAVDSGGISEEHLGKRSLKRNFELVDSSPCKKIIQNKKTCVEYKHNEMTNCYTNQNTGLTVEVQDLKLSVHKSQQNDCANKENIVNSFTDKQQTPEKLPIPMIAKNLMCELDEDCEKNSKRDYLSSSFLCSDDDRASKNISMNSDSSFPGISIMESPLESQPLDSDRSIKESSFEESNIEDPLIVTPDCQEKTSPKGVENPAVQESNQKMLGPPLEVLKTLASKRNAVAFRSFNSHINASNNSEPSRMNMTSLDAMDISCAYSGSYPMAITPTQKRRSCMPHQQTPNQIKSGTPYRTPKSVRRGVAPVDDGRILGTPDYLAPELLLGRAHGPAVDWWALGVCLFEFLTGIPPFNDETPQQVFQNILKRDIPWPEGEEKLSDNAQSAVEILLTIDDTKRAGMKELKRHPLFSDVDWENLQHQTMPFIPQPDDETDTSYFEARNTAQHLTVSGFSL

Substance	relative phosphorylation
PAK3, construct: Full length (from UniProt O75914)	0.949
MASTL, construct: Full length (from UniProt Q96GX5)	0.775
MELK, construct: aa1-340 (from UniProt Q14680)	1.02
CLK3, construct: Full length (from UniProt P49761)	0.914
RPS6KA6, construct: Full length (from UniProt Q9UK32)	0.637
GRK5, construct: Full length (from UniProt P34947)	0.822
TTK, construct: Full length (from UniProt P33981)	0.968
PRPF4B, construct: aa519-end (from UniProt Q13523)	0.571

Same assay, conditions: A fixed; at +2

Substance	relative phosphorylation
PAK3, construct: Full length (from UniProt O75914)	1.12
MASTL, construct: Full length (from UniProt Q96GX5)	1.04
MELK, construct: aa1-340 (from UniProt Q14680)	0.961
CLK3, construct: Full length (from UniProt P49761)	1.22
RPS6KA6, construct: Full length (from UniProt Q9UK32)	0.911
GRK5, construct: Full length (from UniProt P34947)	1.35
TTK, construct: Full length (from UniProt P33981)	0.742
PRPF4B, construct: aa519-end (from UniProt Q13523)	0.959

Same assay, conditions: A fixed; at +3

Substance	relative phosphorylation
PAK3, construct: Full length (from UniProt O75914)	1.05
MASTL, construct: Full length (from UniProt Q96GX5)	0.823
MELK, construct: aa1-340 (from UniProt Q14680)	0.744
CLK3, construct: Full length (from UniProt P49761)	0.84
RPS6KA6, construct: Full length (from UniProt Q9UK32)	0.754
GRK5, construct: Full length (from UniProt P34947)	0.828
TTK, construct: Full length (from UniProt P33981)	0.497
PRPF4B, construct: aa519-end (from UniProt Q13523)	0.8

Same assay, conditions: A fixed; at +4

Substance	relative phosphorylation
PAK3, construct: Full length (from UniProt O75914)	1.07
MASTL, construct: Full length (from UniProt Q96GX5)	1.03
MELK, construct: aa1-340 (from UniProt Q14680)	0.748
CLK3, construct: Full length (from UniProt P49761)	1.18
RPS6KA6, construct: Full length (from UniProt Q9UK32)	0.964
GRK5, construct: Full length (from UniProt P34947)	0.969
TTK, construct: Full length (from UniProt P33981)	0.739
PRPF4B, construct: aa519-end (from UniProt Q13523)	0.921

Same assay, conditions: A fixed; at -1

Substance	relative phosphorylation
PAK3, construct: Full length (from UniProt O75914)	0.974
MASTL, construct: Full length (from UniProt Q96GX5)	0.921
MELK, construct: aa1-340 (from UniProt Q14680)	0.777
CLK3, construct: Full length (from UniProt P49761)	0.969
RPS6KA6, construct: Full length (from UniProt Q9UK32)	0.769
GRK5, construct: Full length (from UniProt P34947)	0.728
TTK, construct: Full length (from UniProt P33981)	0.798
PRPF4B, construct: aa519-end (from UniProt Q13523)	1.05

Same assay, conditions: A fixed; at -2

Substance	relative phosphorylation
PAK3, construct: Full length (from UniProt O75914)	0.862
MASTL, construct: Full length (from UniProt Q96GX5)	0.862
MELK, construct: aa1-340 (from UniProt Q14680)	1.24
CLK3, construct: Full length (from UniProt P49761)	1.52
RPS6KA6, construct: Full length (from UniProt Q9UK32)	0.556
GRK5, construct: Full length (from UniProt P34947)	0.802
TTK, construct: Full length (from UniProt P33981)	0.532
PRPF4B, construct: aa519-end (from UniProt Q13523)	1.22

Same assay, conditions: A fixed; at -3

Substance	relative phosphorylation
PAK3, construct: Full length (from UniProt O75914)	0.985
MASTL, construct: Full length (from UniProt Q96GX5)	0.89
MELK, construct: aa1-340 (from UniProt Q14680)	0.757
CLK3, construct: Full length (from UniProt P49761)	0.79
RPS6KA6, construct: Full length (from UniProt Q9UK32)	0.382
GRK5, construct: Full length (from UniProt P34947)	0.852
TTK, construct: Full length (from UniProt P33981)	0.845
PRPF4B, construct: aa519-end (from UniProt Q13523)	1.02

Same assay, conditions: A fixed; at -4

Substance	relative phosphorylation
PAK3, construct: Full length (from UniProt O75914)	1.32
MASTL, construct: Full length (from UniProt Q96GX5)	1.04
MELK, construct: aa1-340 (from UniProt Q14680)	1.12
CLK3, construct: Full length (from UniProt P49761)	0.812
RPS6KA6, construct: Full length (from UniProt Q9UK32)	0.988
GRK5, construct: Full length (from UniProt P34947)	1.03
TTK, construct: Full length (from UniProt P33981)	0.952
PRPF4B, construct: aa519-end (from UniProt Q13523)	1.06

Same assay, conditions: A fixed; at -5

Substance	relative phosphorylation
PAK3, construct: Full length (from UniProt O75914)	1.33
MASTL, construct: Full length (from UniProt Q96GX5)	1.22
MELK, construct: aa1-340 (from UniProt Q14680)	0.927
CLK3, construct: Full length (from UniProt P49761)	1.06
RPS6KA6, construct: Full length (from UniProt Q9UK32)	0.874
GRK5, construct: Full length (from UniProt P34947)	1.06
TTK, construct: Full length (from UniProt P33981)	0.97
PRPF4B, construct: aa519-end (from UniProt Q13523)	0.939

Same assay, conditions: D fixed; at +1

Substance	relative phosphorylation
PAK3, construct: Full length (from UniProt O75914)	0.291
MASTL, construct: Full length (from UniProt Q96GX5)	0.64
MELK, construct: aa1-340 (from UniProt Q14680)	0.349
CLK3, construct: Full length (from UniProt P49761)	0.555
RPS6KA6, construct: Full length (from UniProt Q9UK32)	0.481
GRK5, construct: Full length (from UniProt P34947)	0.996
TTK, construct: Full length (from UniProt P33981)	0.397
PRPF4B, construct: aa519-end (from UniProt Q13523)	0.544

Same assay, conditions: D fixed; at +2

Substance	relative phosphorylation
PAK3, construct: Full length (from UniProt O75914)	0.36
MASTL, construct: Full length (from UniProt Q96GX5)	0.706
MELK, construct: aa1-340 (from UniProt Q14680)	0.324
CLK3, construct: Full length (from UniProt P49761)	1.69
RPS6KA6, construct: Full length (from UniProt Q9UK32)	1.09
